Reference: patent US20150344863

Target: Factor X, P00742
Sequence (P00742 whole entry, looked up): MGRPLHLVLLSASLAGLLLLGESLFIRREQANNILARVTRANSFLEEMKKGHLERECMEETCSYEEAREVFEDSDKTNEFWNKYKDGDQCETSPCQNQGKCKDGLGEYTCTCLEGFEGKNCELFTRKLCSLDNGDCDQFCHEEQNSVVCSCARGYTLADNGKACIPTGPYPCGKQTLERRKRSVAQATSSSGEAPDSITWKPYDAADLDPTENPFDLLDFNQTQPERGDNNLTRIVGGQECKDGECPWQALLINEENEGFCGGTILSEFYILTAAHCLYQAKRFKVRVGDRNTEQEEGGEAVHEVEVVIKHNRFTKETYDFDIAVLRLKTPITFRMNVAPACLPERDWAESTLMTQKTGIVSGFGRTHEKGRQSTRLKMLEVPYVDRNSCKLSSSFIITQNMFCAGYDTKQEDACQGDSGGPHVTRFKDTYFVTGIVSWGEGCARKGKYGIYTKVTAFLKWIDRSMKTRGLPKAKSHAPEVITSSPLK

B1: desialylated wild-type Factor VII (dWT VIIa) (protein)
chain 1: ANAFLEELRPGSLERECKEEQCSFEEAREIFKDAERTKLFWISYSDGDQCASSPCQNGGSCKDQLQSYICFCLPAFEGRNCETHKDDQLICVNENGGCEQYCSDHTGTKRSCRCHEGYSLLADGVSCTPTVEYPCGKIPILEKRNASKPQGR
chain 2: IVGGKVCPKGECPWQVLLLVNGAQLCGGTLINTIWVVSAAHCFDKIKNWRNLIAVLGEHDLSEHDGDEQSRRVAQVIIPSTYVPGTTNHDIALLRLHQPVVLTDHVVPLCLPERTFSERTLAFVRFSLVSGWGQLLDRGATALELMVLNVPRLMTQDCLQQSRKVGDSPNITEYMFCAGYSDGSKDSCKGDSGGPHATHYRGTWYLTGIVSWGQGCATVGHFGVYTRVSQYIEWLQKLMRSEPRPGVLLRAPFP
- Michaelis Menten kinetics of Factor X activation, Factor X titrated in the presence of sTF-Factor VII complexes (0.5 nM Factor VII, 125 nM sTF): dWT VIIa (dF7) can activate Factor X more effectively (approximately 2-fold) than wild-type Factor VII (F7)
